# From patent publication US20260176378A1 (DYAX, published 2026)
# B1: M7-B04 (Fab, V domains shown)
# VH: EVQLLESGGGLVQPGGSLRLSCAASGFTFSWYSMVWVRQAPGKGLEWVSSISPSGGLTNYADSVKGRFTISRDNSKNTLYLQMNSLRAEDTAVYYCARHTAARPFYYYYMDVWGKGTTVTVSS
# VL: QSALTQPASVSGSPGQSITISCTGTNSDVGNYNLVSWYQQHPGEAPKLLIYEVNKRPSGVSNRFSGSKSGNTASLTISGLQAEDEADYLCCSYAGNRNFYVFGAGTKVTVL
# B2: M27-E05 (Fab, V domains shown)
# VH: EVQLLESGGGLVQPGGSLRLSCAASGFTFSWYLMIWVRQAPGKGLEWVSYIYPSGGFTYYADSVKGRFTISRDNSKNTLYLQMNSLRAEDMAVYYCARTEGPLSWGYGMDVWGQGTTVTVSS
# VL: not shown
# B3: M7-E07 (Fab, V domains shown)
# VH: B2 VH
# VL: not shown
# B4: M38-F02 (Fab, V domains shown)
# VH: EVQLLESGGGLVQPGGSLRLSCAASGFTFSYYMMVWVRQAPGKGLEWVSYIYSSGGHTVYADSVKGRFTISRDNSKNTLYLQMNSLRAEDTAVYYCARDLFLYDFWSKGAFDIWGQGTMVTVSS
# VL: QSVLTQPPSVSVSPGQTASITCSGEKLGDKYVSWYQQKPGQSPSLVICEDSRRPSGIPERFSGSNSGNTATLTISGAQPMDEADYYCQAWDSSTAIFGPGTKVTVL
# B5: M76-D01 (Fab, V domains shown)
# VH: EVQLLESGGGLVQPGGSLRLSCAASGFTFSFYAMHWVRQAPGKGLEWVSGIVPSGGRTHYADSVKGRFTISRDNSKNTLYLQMNSLRAEDTAVYYCATDSSGSPNPLFDYWGQGTLVTVSS
# VL: DIVMTQTPPSLPVNPGEPASISCRSSQSLSDDGNTYLDWYLQRPGQSPQLLIHTLSYRASGVPDRFSGSGSGTDFTLKISRVEAEDVGVYYCMQGTHWPPTFGQGTKVEIK
# B6: M110-C12 (Fab, V domains shown)
# VH: EVQLLESGGGLVQPGGSLRLSCAASGFTFSYYEMDWVRQAPGKGLEWVSGISSSGGHTAYADSVKGRFTISRDNSKNTLYLQMNSLRAEDTATYYCARERRSSSRARYYYGMDVWGQGTTVTVSS
# VL: DIQMTQSPLSLSVTPGEPASISCRSSLSLLHSNGYNYLDWYVQRPGQSPQLLMYLSSTRASGVPDRFSGSGSGTDFTLEISRVEAEDVGVYYCMQPLETPPTFGGGTKVEIK
# B7: M73-D06 (Fab, V domains shown)
# VH: EVQLLESGGGLVQPGGSLRLSCAASGFTFSRYEMYWVRQAPGKGLEWVSSISSSGGPTAYADSVKGRFTISRDNSKNTLYLQMNSLRAEDTAMYYCAKGTPKWELLLRSIYIENAFDIWGQGTMVTVSS
# VL: QSELTQPPSASETPGQRVTISCSGSSSNIGSNTVSWFQQLPGSAPRLLIYNDHRRPSGVPDRFSGSKSGTSASLVISGLQSQDEADYYCSAWDDSLNGVVFGGGTKLTVL
# B8: M29-E09 (Fab, V domains shown)
# VH: EVQLLESGGGLVQPGGSLRLSCAASGFTFSWYEMGWVRQAPGKGLEWVSSIYSSGGGTMYADSVKGRFTISRDNSKNTLYLQMNSLRAEDTAVYYCARNPQYSGYDRSLSDGAFDIWGQGTMVTVSS
# VL: QYELTQPPSVSVSPGQTATITCSGDNLGNKYNSWYQQKPGQSPLLVIYQDTKRPSAIPERFSGSNSGNTATLTISGTQAMDEADYYCQAWDGNVVFGGGTKLTVL
# B9: M142-H08 (antibody, V domains shown)
# VH: EVQLLESGGGLVQPGGSLRLSCAASGFTFSAYSMIWVRQAPGKGLEWVSYIRPSGGRTTYADSVKGRFTISRDNSKNTLYLQMNSLRAEDTAVYYCARGGLLLWFRELKSNYFDYWGQGTLVTVSS
# VL: DIQMTQSPSSLSAFVGDRVTITCRASQPIDNYLNWYHQKPGKAPKLLIYAASRLQSGVPSRLSGSGFGTDFTLTISSLQPEDFGNYYCQQSYTVPYTFGGGTKVEIR
# notes: tested as Fab (Ki,app) and as human IgG (SPR); the IgG is cleaved in HC CDR3 after WFR
# B10: M160-G12 (antibody, V domains shown)
# VH: EVQLLESGGGLVQPGGSLRLSCAASGFTFSHYLMTWVRQAPGKGLEWVSYISPSGGHTIYADSVKGRFTISRDNSKNTLYLQMNSLRAEDTAVYYCARVARGIAARSRTSYFDYWGQGTLVTVSS
# VL: DIQMTQSPSFLSASVGDRVTITCRASQGISSYLAWYQQKPGKAPKLLIYAASTLQSGVPSRFSGSGSGTEFTLTISSLQPEDFATYYCQQLNSYPLTFGGGTKVEIK
# notes: phage-derived Fab; also called R84-D02
# B11: M152-A12 (Fab, V domains shown)
# VH: EVQLLESGGGLVQPGGSLRLSCAASGFTFSPYFMGWVRQAPGKGLEWVSGIGPSGGSTTYADSVKGRFTISRDNSKNTLYLQMNSLRAEDTAVYYCAREGPPYSSGWYRGLRQYHFDYWGQGTLVTVSS
# VL: DIQMTQSPSSLSASVGDRVTITCRASQSISSYLSWYQQRPGKAPNLLIYAASSLQSGVPSRFSGSGSGTDFTLTISSLQPEDFATYYCQQSISIPRTFGQGTKVEVK
# B12: M41-A11 (Fab, V domains shown)
# VH: EVQLLESGGGLVQPGGSLRLSCAASGFTFSHYRMSWVRQAPGKGLEWVSSIYPSGGRTVYADSVKGRFTISRDNSKNTLYLQMNSLRAEDTAVYYCAKDKFEWRLLFRGIGNDAFDIWGQGTMVTVSS
# VL: QSVLTQPPSVSVSPGQTASITCSGDKLGDKYTSWYQQRPGQSPVLVIYQDIKRPSGIPERFSGSNSGNTATLTISGTQAMDEADYYCQAWDSPNARVFGSGTKVTVL
# B13: M145-D11 (Fab, V domains shown)
# VH: B12 VH
# VL: B12 VL
# notes: also called 559A-M145-D11 (sFab); 559A-M0145-D11
# B14: M146-E12 (Fab, V domains shown)
# VH: EVQLLESGGGLVQPGGSLRLSCAASGFTFSRYIMHWVRQAPGKGLEWVSSISPSGGLTSYADSVKGRFTISRDNSKNTLYLQMNSLRAEDTAVYYCAREFENAYHYYYYGMDVWGQGTTVTVSS
# VL: DIQMTQSPSSLSASVGDRVTITCRASGDIGNALGWYQQKPGKAPRLLISDASTLQSGVPLRFSGSGSGTEFTLTISSLQPEDFATYYCLQGYNYPRTFGQGTKLEIR
# notes: claim 26 (viii) gives VL 265 and VH 266 instead
# B15: M35-G04 (Fab, V domains shown)
# VH: EVQLLESGGGLVQPGGSLRLSCAASGFTFSYYHMSWVRQAPGKGLEWVSVISPSGGSTKYADSVKGRFTISRDNSKNTLYLQMNSLRAEDTAVYYCARGGSSDYAWGSYRRPYYFDYWGQGTLVTVSS
# VL: DIQMTQSPATLSLSPGERATLSCRASQSVSSYLAWYQQKPGQAPRLLIYDASNRATGIPARFSGSGSGTDFTLTISSLEPEDFAVYYCQQRSNWPRGFTFGPGTKVDIK
# notes: also called 559A-M35-G04; 559A-M0035-G04
# B16: M145-D01 (Fab, V domains shown)
# VH: B15 VH
# VL: B15 VL
# B17: M29-D09 (Fab, V domains shown)
# VH: EVQLLESGGGLVQPGGSLRLSCAASGFTFSWYTMVWVRQAPGKGLEWVSYIYPSGGATFYADSVKGRFTISRDNSKNTLYLQMNSLRAEDTAVYYCAMGSYDYIWGFYSDHWGQGTLVTVSS
# VL: QSALTQPPTVSVSPGQTARITCSGNKLGDKYVAWYQQKPGQSPMLVIYQDTKRPSRVSERFSGSNSANTATLSISGTQALDEADYYCQAWDSSIVIFGGGTRLTVL
# notes: also called 559A-M29-D09 (sFab); 559A-M0029-D09
# B18: M162-A04 (antibody, V domains shown)
# VH: EVQLLESGGGLVQPGGSLRLSCAASGFTFSHYIMMWVRQAPGKGLEWVSGIYSSGGITVYADSVKGRFTISRDNSKNTLYLQMNSLRAEDTAVYYCAYRRTGIPRRDAFDIWGQGTMVTVSS
# VL: DIQMTQSPSTLSASVGDRVTITCRASQSISSWLAWYQQKPGKAPNLLIYKASTLESGVPSRFSGSGSGTEFTLTISSLQPDDFATYYCQQYNTYWTFGQGTKVEIK
# notes: phage-derived Fab; also called R84-H05; M162-A4
# B19: M137-E12 (Fab, V domains shown)
# VH: EVQLLESGGGLVQPGGSLRLSCAASGFTFSDYRMQWVRQAPGKGLEWVSVIVPSGGNTMYADSVKGRFTISRDNSKNTLYLQMNSLRAEDTAVYYCARGGPGSSIAARRAPTGYYGMDVWGQGTTVTVSS
# VL: QSVLIQPPSVSGIPGQRVTISCSGNNSNFGSNTVTWYQQLPGTAPKLLIYSDSRRPSGVPDRFSGSRSDTSASLAISGLQSEDEAEYHCAAWDDSLNGVFGGGTKLTVL
# B20: M161-C11 (Fab, V domains shown)
# VH: EVQLLESGGGLVQPGGSLRLSCAASGFTFSDYAMKWVRQAPGKGLEWVSSISSSGGVTQYADSVKGRFTISRDNSKNTLYLQMNSLRAEDTAVYYCAREEDYSSSWYSRRFDYYYGMDVWGQGTTVTVSS
# VL: QSALTQPPSVSVSPGQTASITCSGDKLGDKYVSWYQQRPGQSPVLVIYQDTKRPSGIPERFSGSNSGNTATLTISGTQAVDEADYYCQAWDSSTYVFGGGTKVTVL
# B21: M11-E06 (Fab, V domains shown)
# VH: EVQLLESGGGLVQPGGSLRLSCAASGFTFSQYAMHWVRQAPGKGLEWVSSIYPSGGFTLYADSVKGRFTISRDNSKNTLYLQMNSLRAEDTAMYYCARGGWLAGGELLNWGQGTLVTVSS
# VL: DIQMTQSPSSLSASIGDRVTISCRASRGIGTYLNWYQQHAGKAPKLLIRAASSLETGVPPRFSGSGSGTDFTLTISSLQSDDFATYYCQESFTNVYNFGQGTKLEIK
# B22: M11-G09 (Fab, V domains shown)
# VH: EVQLLESGGGLVQPGGSLRLSCAASGFTFSLYNMTWVRQAPGKGLEWVSYIYPSGGGTHYADSVKGRFTISRDNSKNTLYLQMNSLRAEDTAVYYCARDTGFWSADAFDIWGQGTMVTVSS
# VL: DIQMTQSPSSLSASVGDRVTITCRTSQGINHYLNWYQQKPGKAPKILVFAASELQTGVPSRFSGTGSGTSYTLTITSLQPEDVATYYCQQTYTSPYTFGQGTKLEVK
# Biological target: T1, human plasma kallikrein (human, UniProt P03952 20-390; P03952 391-638)
# T1 construct: two disulfide-linked chains; NP_000883.2; also called pKal; hpKal
# Experiment: ELISA, biotinylated pKal signal over streptavidin background
# T1 sequence (P03952 20-390 limits assumed, chain 1 of 2): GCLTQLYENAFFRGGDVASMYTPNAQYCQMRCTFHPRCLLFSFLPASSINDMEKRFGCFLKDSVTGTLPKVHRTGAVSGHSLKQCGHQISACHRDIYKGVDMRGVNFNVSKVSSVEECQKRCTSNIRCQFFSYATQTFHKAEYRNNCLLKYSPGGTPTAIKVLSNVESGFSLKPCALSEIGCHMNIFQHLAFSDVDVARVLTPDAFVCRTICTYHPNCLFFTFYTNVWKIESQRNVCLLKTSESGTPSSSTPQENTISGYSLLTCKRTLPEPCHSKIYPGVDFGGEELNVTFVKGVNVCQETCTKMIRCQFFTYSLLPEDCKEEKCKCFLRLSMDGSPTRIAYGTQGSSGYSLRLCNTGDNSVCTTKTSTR
# T1 sequence (P03952 391-638 limits assumed, chain 2 of 2): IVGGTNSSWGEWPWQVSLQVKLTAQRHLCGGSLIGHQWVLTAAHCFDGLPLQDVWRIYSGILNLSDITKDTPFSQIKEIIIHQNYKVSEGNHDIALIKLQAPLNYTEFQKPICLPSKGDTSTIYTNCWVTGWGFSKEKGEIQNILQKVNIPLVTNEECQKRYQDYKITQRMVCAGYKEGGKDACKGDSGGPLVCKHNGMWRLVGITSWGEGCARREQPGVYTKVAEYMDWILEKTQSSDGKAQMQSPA
row,Binder,ELISA (T/B)
1,B1,4.1
2,B2,41.3
3,B3,45.7
4,B4,33.5
5,B5,11.2
6,B6,2.4
7,B7,4
8,B8,28.8
9,B9,29.9
10,B10,38.3
11,B11,19
12,B12,28
13,B13,40
14,B14,49.6
15,B15,11.1
16,B16,6.2
17,B17,47.5
18,B18,11.4
19,B19,4.5
20,B20,41.8

# Biological target: T1, human plasma kallikrein
# Experiment: as above
# Remark: another data set of the same source
row,Binder,ELISA (T/B)
1,B21,12.6
2,B22,23.6
